Assay results: paper PMC12375970 (2025)

Molecular target: importin-alpha2 (mImpα2) (Mus musculus, UniProt P52293)
Test: MST

- Kd: ~1 µM
B1: TAF8 NLS NLS (peptide)
chain: PVKKPKIRRKKSLS
